Laboratory results published in patent publication US20240148892A1.

Target: human full-length B7H3 expressed on MCF-7 cells (human) (UniProt Q5ZPR3)
Test: cell-based or functional assay

Sequence of human full-length B7H3 expressed on MCF-7 cells (human) (Q5ZPR3 29-534 limits assumed): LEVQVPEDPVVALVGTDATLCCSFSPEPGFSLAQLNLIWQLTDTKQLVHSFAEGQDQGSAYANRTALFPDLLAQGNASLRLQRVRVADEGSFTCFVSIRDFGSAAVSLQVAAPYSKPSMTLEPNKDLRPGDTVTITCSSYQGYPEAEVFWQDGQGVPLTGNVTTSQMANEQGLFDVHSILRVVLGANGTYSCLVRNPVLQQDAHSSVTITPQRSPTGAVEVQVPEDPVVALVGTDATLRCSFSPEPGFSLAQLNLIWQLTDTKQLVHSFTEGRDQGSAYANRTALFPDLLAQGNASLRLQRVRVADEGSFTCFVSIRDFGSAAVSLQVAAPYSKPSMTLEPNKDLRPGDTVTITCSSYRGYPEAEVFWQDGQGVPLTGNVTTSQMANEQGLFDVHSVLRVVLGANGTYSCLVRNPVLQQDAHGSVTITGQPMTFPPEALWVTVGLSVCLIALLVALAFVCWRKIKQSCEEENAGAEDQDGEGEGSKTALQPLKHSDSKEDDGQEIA

- IC50 of inhibition of proliferation, A375 melanoma cells (CellTiter-Glo): 315 nM
- IC50 of inhibition of proliferation, A549 lung cancer cells (CellTiter-Glo): 378 nM
- IC50 of inhibition of proliferation, Calu-6 lung cancer cells (CellTiter-Glo): 428 nM
- IC50 of inhibition of proliferation, HT-29 colorectal cancer cells (CellTiter-Glo): 1140 nM
- IC50 of inhibition of proliferation, MCF-7 breast cancer cells (CellTiter-Glo): 435 nM
- IC50 of inhibition of proliferation, NCI-H358 lung cancer cells (CellTiter-Glo): 123 nM
- IC50 of inhibition of proliferation, NCI-H1568 lung cancer cells (CellTiter-Glo): 32.8 nM
- IC50 of inhibition of proliferation, PC-3 prostate cancer cells (CellTiter-Glo): 959 nM
- IC50 of inhibition of proliferation, U87 MG brain cancer cells (CellTiter-Glo): 354 nM
B1: reference ADC-1 (Daiichi Sankyo, DS7300) (protein, INN chains, looked up)
VH: QVQLVQSGAEVKKPGSSVKVSCKASGYTFTNYVMHWVRQAPGQGLEWMGYINPYNDDVKYNEKFKGRVTITADESTSTAYMELSSLRSEDTAVYYCARWGYYGSPLYYFDYWGQGTLVTVSS
VL: EIVLTQSPATLSLSPGERATLSCRASSRLIYMHWYQQKPGQAPRPLIYATSNLASGIPARFSGSGSGTDFTLTISSLEPEDFAVYYCQQWNSNPPTFGQGTKVEIK
modifications: deruxtecan payload
